Test results taken from article PMC4333214.
Values joined by “and” are separate entries in the source; they are usually repeats but may differ in a detail not shown here. Identical values can stand only once.

Biological target: FLβ.AP2 (AP2 comprising full-length β2, μ2 and σ2 subunits and the α-trunk domain) (UniProt P63010)
Assay: co-sedimentation

clathrin, sequence (Q00610 whole entry, looked up): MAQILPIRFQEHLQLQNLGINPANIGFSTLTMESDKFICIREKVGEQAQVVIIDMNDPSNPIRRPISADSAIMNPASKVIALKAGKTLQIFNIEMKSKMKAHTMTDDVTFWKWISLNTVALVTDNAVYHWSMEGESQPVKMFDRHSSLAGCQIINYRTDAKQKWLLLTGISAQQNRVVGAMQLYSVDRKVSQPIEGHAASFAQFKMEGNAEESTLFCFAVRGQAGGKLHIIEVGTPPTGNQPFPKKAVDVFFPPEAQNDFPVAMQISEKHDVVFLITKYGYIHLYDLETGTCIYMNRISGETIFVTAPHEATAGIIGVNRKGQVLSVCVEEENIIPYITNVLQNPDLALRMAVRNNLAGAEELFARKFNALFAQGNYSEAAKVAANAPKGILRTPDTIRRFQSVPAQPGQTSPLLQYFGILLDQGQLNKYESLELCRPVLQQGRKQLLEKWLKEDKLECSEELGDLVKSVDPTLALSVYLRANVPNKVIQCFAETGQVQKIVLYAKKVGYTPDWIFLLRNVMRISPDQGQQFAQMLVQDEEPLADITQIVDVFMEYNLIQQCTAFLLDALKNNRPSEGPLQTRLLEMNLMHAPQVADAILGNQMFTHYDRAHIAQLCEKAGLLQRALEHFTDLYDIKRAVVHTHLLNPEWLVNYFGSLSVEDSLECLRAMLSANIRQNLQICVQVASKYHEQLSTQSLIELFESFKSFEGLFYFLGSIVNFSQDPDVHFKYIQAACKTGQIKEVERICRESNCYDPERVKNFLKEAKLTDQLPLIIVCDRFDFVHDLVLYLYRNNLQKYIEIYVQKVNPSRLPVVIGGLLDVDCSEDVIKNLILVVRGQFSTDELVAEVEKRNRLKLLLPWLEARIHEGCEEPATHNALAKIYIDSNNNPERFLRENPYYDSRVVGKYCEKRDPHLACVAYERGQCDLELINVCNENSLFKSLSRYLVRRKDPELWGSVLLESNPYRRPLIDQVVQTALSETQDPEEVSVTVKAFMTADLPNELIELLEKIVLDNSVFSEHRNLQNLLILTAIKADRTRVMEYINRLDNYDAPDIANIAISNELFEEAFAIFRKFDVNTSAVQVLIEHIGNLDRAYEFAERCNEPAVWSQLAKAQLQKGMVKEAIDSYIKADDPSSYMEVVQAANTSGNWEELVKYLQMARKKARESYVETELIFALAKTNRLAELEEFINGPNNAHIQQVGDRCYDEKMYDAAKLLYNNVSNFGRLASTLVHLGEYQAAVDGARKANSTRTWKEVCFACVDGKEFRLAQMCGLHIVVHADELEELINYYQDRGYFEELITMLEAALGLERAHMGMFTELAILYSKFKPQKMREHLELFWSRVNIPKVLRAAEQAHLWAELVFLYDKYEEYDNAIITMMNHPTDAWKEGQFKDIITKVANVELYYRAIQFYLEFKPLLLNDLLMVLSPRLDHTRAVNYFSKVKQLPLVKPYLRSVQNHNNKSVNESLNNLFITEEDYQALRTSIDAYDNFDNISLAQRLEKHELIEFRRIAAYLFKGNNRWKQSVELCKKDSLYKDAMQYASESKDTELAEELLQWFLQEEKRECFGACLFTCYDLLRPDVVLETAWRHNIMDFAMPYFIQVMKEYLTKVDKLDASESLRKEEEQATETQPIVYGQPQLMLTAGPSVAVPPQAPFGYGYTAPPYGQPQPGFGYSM

clathrin (from UniProt Q00610 1-1675) (complex)
ratio of clathrin to AP2 in the liposome pellets: 26.5% and 5.2%
